# Data taken from patent US20030157712A1 (VANDERBILT UNIVERSITY, published 2003).
# T1: endogenous EphB2 receptor of HRMEC (human, UniProt P29323 19-1055)
# T1 construct: whole, on cells; also called Nuk
# T1 sequence (looked up): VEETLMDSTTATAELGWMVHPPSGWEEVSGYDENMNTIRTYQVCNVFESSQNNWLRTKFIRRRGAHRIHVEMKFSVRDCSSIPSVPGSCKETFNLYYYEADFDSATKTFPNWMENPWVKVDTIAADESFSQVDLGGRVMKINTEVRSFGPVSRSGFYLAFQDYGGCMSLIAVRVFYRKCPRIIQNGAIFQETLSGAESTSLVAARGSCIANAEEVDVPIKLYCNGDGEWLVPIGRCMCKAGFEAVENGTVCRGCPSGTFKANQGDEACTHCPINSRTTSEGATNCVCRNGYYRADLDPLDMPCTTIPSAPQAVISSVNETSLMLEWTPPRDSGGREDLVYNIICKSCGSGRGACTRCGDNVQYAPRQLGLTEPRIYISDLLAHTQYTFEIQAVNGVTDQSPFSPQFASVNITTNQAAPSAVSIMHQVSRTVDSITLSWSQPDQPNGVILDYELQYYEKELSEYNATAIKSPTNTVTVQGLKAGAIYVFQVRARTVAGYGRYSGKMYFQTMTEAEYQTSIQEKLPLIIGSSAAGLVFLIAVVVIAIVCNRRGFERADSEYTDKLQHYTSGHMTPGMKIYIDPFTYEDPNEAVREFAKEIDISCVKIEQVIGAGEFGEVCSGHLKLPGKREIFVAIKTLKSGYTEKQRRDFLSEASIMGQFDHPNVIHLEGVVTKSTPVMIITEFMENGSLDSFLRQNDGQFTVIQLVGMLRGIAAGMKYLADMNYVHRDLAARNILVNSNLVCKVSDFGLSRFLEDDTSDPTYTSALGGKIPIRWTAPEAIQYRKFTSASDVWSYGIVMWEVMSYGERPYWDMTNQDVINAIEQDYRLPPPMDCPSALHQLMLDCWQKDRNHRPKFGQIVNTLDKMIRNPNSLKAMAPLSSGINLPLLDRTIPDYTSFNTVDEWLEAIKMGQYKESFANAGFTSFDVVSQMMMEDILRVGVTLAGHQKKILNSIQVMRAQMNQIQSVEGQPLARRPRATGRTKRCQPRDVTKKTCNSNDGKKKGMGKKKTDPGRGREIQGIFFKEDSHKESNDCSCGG
# B1: endogenous EphB1 receptor of human endothelial cells (HRMEC; HUVEC) (receptor, UniProt P54762 18-984, looked up)
# chain: MEETLMDTRTATAELGWTANPASGWEEVSGYDENLNTIRTYQVCNVFEPNQNNWLLTTFINRRGAHRIYTEMRFTVRDCSSLPNVPGSCKETFNLYYYETDSVIATKKSAFWSEAPYLKVDTIAADESFSQVDFGGRLMKVNTEVRSFGPLTRNGFYLAFQDYGACMSLLSVRVFFKKCPSIVQNFAVFPETMTGAESTSLVIARGTCIPNAEEVDVPIKLYCNGDGEWMVPIGRCTCKPGYEPENSVACKACPAGTFKASQEAEGCSHCPSNSRSPAEASPICTCRTGYYRADFDPPEVACTSVPSGPRNVISIVNETSIILEWHPPRETGGRDDVTYNIICKKCRADRRSCSRCDDNVEFVPRQLGLTECRVSISSLWAHTPYTFDIQAINGVSSKSPFPPQHVSVNITTNQAAPSTVPIMHQVSATMRSITLSWPQPEQPNGIILDYEIRYYEKEHNEFNSSMARSQTNTARIDGLRPGMVYVVQVRARTVAGYGKFSGKMCFQTLTDDDYKSELREQLPLIAGSAAAGVVFVVSLVAISIVCSRKRAYSKEAVYSDKLQHYSTGRGSPGMKIYIDPFTYEDPNEAVREFAKEIDVSFVKIEEVIGAGEFGEVYKGRLKLPGKREIYVAIKTLKAGYSEKQRRDFLSEASIMGQFDHPNIIRLEGVVTKSRPVMIITEFMENGALDSFLRQNDGQFTVIQLVGMLRGIAAGMKYLAEMNYVHRDLAARNILVNSNLVCKVSDFGLSRYLQDDTSDPTYTSSLGGKIPVRWTAPEAIAYRKFTSASDVWSYGIVMWEVMSFGERPYWDMSNQDVINAIEQDYRLPPPMDCPAALHQLMLDCWQKDRNSRPRFAEIVNTLDKMIRNPASLKTVATITAVPSQPLLDRSIPDFTAFTTVDDWLSAIKMVQYRDSFLTAGFTSLQLVTQMTSEDLLRIGITLAGHQKKILNSIHSMRVQISQSPTAMA
# notes: whole, on cells; In the co-precipitation entries the receptor was tyrosine phosphorylated after stimulation of the cells; also called ELK
# Target: T1, endogenous EphB2 receptor of HRMEC
# Experiment: co-immunoprecipitation from HRMEC stimulated with dimeric or multimeric ephrin-B1/Fc, immunoblot
# Description: Ligand stimulation and immunoprecipitation of endogenous EphB receptors. Primary HRMEC were used at passages 3-6, as described (12). […] Ninety min prior to ligand stimulation, cells (2×10⁵cells/60 mm dish) were plated on Matrigel-(Collaborative Biomedical Products, Becton Dickinson, Bedford, Mass., as recommended) or fibronectin-coated (29) dishes. […] Cells were incubated with agonists at 37° C. for 10 min, or as described in the figure legends. Immunoprecipitations were conducted on either cell lysates (P19) or on Triticum vulgaris lectin affinity purified fractions of HRMEC (15) (needed to reduce the background from Matrigel). Precipitated proteins were analyzed by immunoblot (15).
binder,measurement,value
B1,binding result,no binding
